In ChEMBL document CHEMBL1212772:

Assays:
[1] = substrate: CC1(C)S[C@@H]2[C@H](NC(=O)Cc3ccccc3)C(=O)N2[C@H]1C(=O)O; assay: (§1) Kcat/Km ratio of Pseudomonas aeruginosa OXA-10
[2] = substrate: O=C(Cc1cccs1)N[C@@H]1C(=O)N2C(C(=O)[O-])=C(C[n+]3ccccc3)CS[C@H]12; assay: as §1
[3] = substrate: C[C@@H](O)[C@H]1C(=O)N2C(C(=O)O)=C(S[C@@H]3CN[C@H](C(=O)N(C)C)C3)[C@H](C)[C@H]12; assay: (§2) Activity of Pseudomonas aeruginosa OXA-10
[4] = substrate: CC1(C)S[C@@H]2[C@H](NC(=O)Cc3ccccc3)C(=O)N2[C@H]1C(=O)O; assay: as §2
[5] = substrate: CC(C)(O/N=C(\C(=O)N[C@@H]1C(=O)N2C(C(=O)[O-])=C(C[n+]3ccccc3)CS[C@H]12)c1csc(N)n1)C(=O)O; assay: as §2
[6] = substrate: C[C@@H](O)[C@H]1C(=O)N2C(C(=O)O)=C(S[C@@H]3CN[C@H](CNS(N)(=O)=O)C3)[C@H](C)[C@H]12; assay: as §2
[7] = substrate: C[C@@H](O)[C@H]1C(=O)N2C(C(=O)O)=C(SCCNC=N)C[C@H]12; assay: as §2
[8] = substrate: O=C(Cc1cccs1)N[C@@H]1C(=O)N2C(C(=O)[O-])=C(C[n+]3ccccc3)CS[C@H]12; assay: as §2
[9] = substrate: C[C@@H](O)[C@H]1C(=O)N2C(C(=O)O)=C(S[C@@H]3CN[C@H](C(=O)N(C)C)C3)[C@H](C)[C@H]12; assay: (§3) Kcat/Km ratio of Klebsiella pneumoniae KPC-2
[10] = substrate: CC1(C)S[C@@H]2[C@H](NC(=O)Cc3ccccc3)C(=O)N2[C@H]1C(=O)O; assay: as §3
[11] = substrate: CC(C)(O/N=C(\C(=O)N[C@@H]1C(=O)N2C(C(=O)[O-])=C(C[n+]3ccccc3)CS[C@H]12)c1csc(N)n1)C(=O)O; assay: as §3
[12] = substrate: C[C@@H](O)[C@H]1C(=O)N2C(C(=O)O)=C(S[C@@H]3CN[C@H](CNS(N)(=O)=O)C3)[C@H](C)[C@H]12; assay: as §3
[13] = substrate: C[C@@H](O)[C@H]1C(=O)N2C(C(=O)O)=C(SCCNC=N)C[C@H]12; assay: as §3
[14] = substrate: O=C(Cc1cccs1)N[C@@H]1C(=O)N2C(C(=O)[O-])=C(C[n+]3ccccc3)CS[C@H]12; assay: as §3
[15] = substrate: C[C@@H](O)[C@H]1C(=O)N2C(C(=O)O)=C(S[C@@H]3CN[C@H](C(=O)N(C)C)C3)[C@H](C)[C@H]12; assay: (§4) Activity of Klebsiella pneumoniae KPC-2
[16] = substrate: CC1(C)S[C@@H]2[C@H](NC(=O)Cc3ccccc3)C(=O)N2[C@H]1C(=O)O; assay: as §4
[17] = substrate: CC(C)(O/N=C(\C(=O)N[C@@H]1C(=O)N2C(C(=O)[O-])=C(C[n+]3ccccc3)CS[C@H]12)c1csc(N)n1)C(=O)O; assay: as §4
[18] = substrate: C[C@@H](O)[C@H]1C(=O)N2C(C(=O)O)=C(S[C@@H]3CN[C@H](CNS(N)(=O)=O)C3)[C@H](C)[C@H]12; assay: as §4
[19] = substrate: C[C@@H](O)[C@H]1C(=O)N2C(C(=O)O)=C(SCCNC=N)C[C@H]12; assay: as §4
[20] = substrate: O=C(Cc1cccs1)N[C@@H]1C(=O)N2C(C(=O)[O-])=C(C[n+]3ccccc3)CS[C@H]12; assay: as §4
[21] = substrate: C[C@@H](O)[C@H]1C(=O)N2C(C(=O)O)=C(S[C@@H]3CN[C@H](C(=O)N(C)C)C3)[C@H](C)[C@H]12; assay: (§5) Kcat/Km ratio of Escherichia coli TEM-1
[22] = substrate: C[C@@H](O)[C@H]1C(=O)N2C(C(=O)O)=C(S[C@@H]3CN[C@H](CNS(N)(=O)=O)C3)[C@H](C)[C@H]12; assay: as §5
[23] = substrate: C[C@@H](O)[C@H]1C(=O)N2C(C(=O)O)=C(S[C@@H]3CN[C@H](C(=O)N(C)C)C3)[C@H](C)[C@H]12; assay: (§6) Activity of Escherichia coli TEM-1
[24] = substrate: C[C@@H](O)[C@H]1C(=O)N2C(C(=O)O)=C(S[C@@H]3CN[C@H](CNS(N)(=O)=O)C3)[C@H](C)[C@H]12; assay: as §6

B1: Beta-lactamase OXA-10 (Pseudomonas aeruginosa), P14489 (protein)
chain: MKTFAAYVIIACLSSTALAGSITENTSWNKEFSAEAVNGVFVLCKSSSKSCATNDLARASKEYLPASTFKIPNAIIGLETGVIKNEHQVFKWDGKPRAMKQWERDLTLRGAIQVSAVPVFQQIAREVGEVRMQKYLKKFSYGNQNISGGIDKFWLEGQLRISAVNQVEFLESLYLNKLSASKENQLIVKEALVTEAAPEYLVHSKTGFSGVGTESNPGVAWWVGWVEKETEVYFFAFNMDIDNESKLPLRKSIPTKIMESEGIIGG
kcat/Km [1]: 1.1e+07 M⁻¹ s⁻¹
kcat/Km [2]: 80000 M⁻¹ s⁻¹
kcat [3]: < 0.005 s⁻¹
Km [4]: 7.9 µM
kcat [4]: 86 s⁻¹
kcat [5]: < 0.0095 s⁻¹
kcat [6]: < 0.0073 s⁻¹
kcat [7]: < 0.014 s⁻¹
Km [8]: 200 µM
kcat [8]: 16 s⁻¹

B2: Carbapenem-hydrolyzing beta-lactamase KPC (Klebsiella pneumoniae), Q9F663 (protein)
chain: MSLYRRLVLLSCLSWPLAGFSATALTNLVAEPFAKLEQDFGGSIGVYAMDTGSGATVSYRAEERFPLCSSFKGFLAAAVLARSQQQAGLLDTPIRYGKNALVPWSPISEKYLTTGMTVAELSAAAVQYSDNAAANLLLKELGGPAGLTAFMRSIGDTTFRLDRWELELNSAIPGDARDTSSPRAVTESLQKLTLGSALAAPQRQQFVDWLKGNTTGNHRIRAAVPADWAVGDKTGTCGVYGTANDYAVVWPTGRAPIVLAVYTRAPNKDDKHSEAVIAAAARLALEGLGVNGQ
kcat/Km [9]: 280000 M⁻¹ s⁻¹
kcat/Km [10]: 2e+06 M⁻¹ s⁻¹
kcat/Km [11]: 1700 M⁻¹ s⁻¹
kcat/Km [12]: 340000 M⁻¹ s⁻¹
kcat/Km [13]: 340000 M⁻¹ s⁻¹
kcat/Km [14]: 760000 M⁻¹ s⁻¹
Km [15]: 13 µM
kcat [15]: 3.6 s⁻¹
Km [16]: 30 µM
kcat [16]: 60 s⁻¹
Km [17]: 230 µM
kcat [17]: 0.38 s⁻¹
Km [18]: 1.6 µM
kcat [18]: 0.55 s⁻¹
Km [19]: 90 µM
kcat [19]: 31 s⁻¹
Km [20]: 510 µM
kcat [20]: 390 s⁻¹

B3: Beta-lactamase TEM (Escherichia coli), P62593 (protein)
chain: MSIQHFRVALIPFFAAFCLPVFAHPETLVKVKDAEDQLGARVGYIELDLNSGKILESFRPEERFPMMSTFKVLLCGAVLSRVDAGQEQLGRRIHYSQNDLVEYSPVTEKHLTDGMTVRELCSAAITMSDNTAANLLLTTIGGPKELTAFLHNMGDHVTRLDRWEPELNEAIPNDERDTTMPAAMATTLRKLLTGELLTLASRQQLIDWMEADKVAGPLLRSALPAGWFIADKSGAGERGSRGIIAALGPDGKPSRIVVIYTTGSQATMDERNRQIAEIGASLIKHW
kcat/Km [21]: 15 M⁻¹ s⁻¹
kcat/Km [22]: 39 M⁻¹ s⁻¹
Km [23]: 15 µM
kcat [23]: 0.00023 s⁻¹
Km [24]: 5.4 µM
kcat [24]: 0.00021 s⁻¹
